Laboratory results reported in patent US7422883.

Target: β6 Δ746-764 deletion mutant expressed in SW480 cells (human) (UniProt P06756)
Assay: β6 immunoprecipitation (R6G9) from SW480 transfectants, blot with E10 (FIG. 27B)

β6 Δ746-764 deletion mutant expressed in SW480 cells (human), sequence (chain, as listed by the source mutant, chain 1 of 2): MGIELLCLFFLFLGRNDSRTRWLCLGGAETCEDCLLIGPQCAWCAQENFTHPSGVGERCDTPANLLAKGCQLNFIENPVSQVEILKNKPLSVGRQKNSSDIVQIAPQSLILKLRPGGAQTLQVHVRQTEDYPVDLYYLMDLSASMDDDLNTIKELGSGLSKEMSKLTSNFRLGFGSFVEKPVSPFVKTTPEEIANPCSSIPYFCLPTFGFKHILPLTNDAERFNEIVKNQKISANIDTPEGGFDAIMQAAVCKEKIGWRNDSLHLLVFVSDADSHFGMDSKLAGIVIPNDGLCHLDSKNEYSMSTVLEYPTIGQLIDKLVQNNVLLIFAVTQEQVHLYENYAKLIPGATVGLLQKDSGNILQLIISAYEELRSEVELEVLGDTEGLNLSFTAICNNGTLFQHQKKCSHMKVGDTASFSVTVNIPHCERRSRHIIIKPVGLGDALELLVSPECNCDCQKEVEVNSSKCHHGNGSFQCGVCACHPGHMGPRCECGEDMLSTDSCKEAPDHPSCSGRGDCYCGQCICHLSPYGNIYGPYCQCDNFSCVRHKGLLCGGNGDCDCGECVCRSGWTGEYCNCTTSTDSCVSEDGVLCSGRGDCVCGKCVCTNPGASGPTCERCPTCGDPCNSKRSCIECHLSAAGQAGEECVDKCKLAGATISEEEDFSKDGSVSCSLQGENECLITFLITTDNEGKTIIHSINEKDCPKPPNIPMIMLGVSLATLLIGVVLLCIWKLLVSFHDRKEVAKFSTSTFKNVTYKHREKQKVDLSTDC
β6 Δ746-764 deletion mutant expressed in SW480 cells (human), sequence (P06756 31-1048, stated change not applied, chain 2 of 2): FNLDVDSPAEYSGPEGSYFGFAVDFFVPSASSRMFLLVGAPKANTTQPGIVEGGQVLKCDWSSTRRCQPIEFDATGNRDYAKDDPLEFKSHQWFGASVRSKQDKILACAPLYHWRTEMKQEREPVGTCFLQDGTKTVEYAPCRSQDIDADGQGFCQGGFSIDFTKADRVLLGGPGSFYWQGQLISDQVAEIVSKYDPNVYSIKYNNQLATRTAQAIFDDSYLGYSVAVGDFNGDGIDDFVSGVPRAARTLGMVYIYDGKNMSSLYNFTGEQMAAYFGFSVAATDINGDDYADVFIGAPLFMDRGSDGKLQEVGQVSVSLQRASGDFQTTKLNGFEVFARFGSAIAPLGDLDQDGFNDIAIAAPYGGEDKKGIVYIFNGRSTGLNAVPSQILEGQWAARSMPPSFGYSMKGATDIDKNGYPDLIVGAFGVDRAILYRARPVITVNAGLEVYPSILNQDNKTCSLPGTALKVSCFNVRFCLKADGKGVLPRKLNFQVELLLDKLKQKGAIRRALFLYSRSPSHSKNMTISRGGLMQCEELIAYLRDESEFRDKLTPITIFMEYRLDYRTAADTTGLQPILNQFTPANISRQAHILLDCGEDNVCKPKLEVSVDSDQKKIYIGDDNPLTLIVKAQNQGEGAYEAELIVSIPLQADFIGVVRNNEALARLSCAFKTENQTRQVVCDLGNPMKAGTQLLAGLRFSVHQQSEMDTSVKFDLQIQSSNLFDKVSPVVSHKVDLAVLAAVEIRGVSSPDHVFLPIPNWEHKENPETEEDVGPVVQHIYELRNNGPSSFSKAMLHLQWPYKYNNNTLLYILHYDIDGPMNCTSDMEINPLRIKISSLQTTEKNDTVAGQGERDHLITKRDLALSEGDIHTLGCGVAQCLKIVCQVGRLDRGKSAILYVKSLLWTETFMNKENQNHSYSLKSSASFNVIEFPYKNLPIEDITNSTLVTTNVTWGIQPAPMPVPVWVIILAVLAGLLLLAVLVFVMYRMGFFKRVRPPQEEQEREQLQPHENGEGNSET

Question: How did the reduction of β6-bound ERK against the wild type receptor turn out when “ERK (endogenous ERK1/2, band at the position of ERK2, in lysates of human cell lines) (from UniProt P28482 2-360)” was run?
Answer: Its reduction of β6-bound ERK against the wild type receptor is greater than 75%.
